How the values were obtained:
Test in all cases: cell-based or functional assay
[1] = biological target: HIV-1 Env of pseudovirus TRO.11 (HIV-1)
[2] = biological target: HIV-1 Env pseudovirus 231966.c02 (HIV-1)
[3] = biological target: HIV-1 Env pseudovirus BJOX009000.02.4 (HIV-1)
[4] = biological target: HIV-1 Env of pseudovirus 1012_11_TC21_3257 (HIV-1)
[5] = biological target: HIV-1 Env of pseudovirus QH0692.42 (HIV-1)

Substance | IC50 [1] [µg/mL] | IC80 [1] [µg/mL] | MPI [1] | IC50 [2] [µg/mL] | IC80 [2] [µg/mL] | MPI [2] | IC50 [3] [µg/mL] | IC80 [3] [µg/mL] | MPI [3] | IC50 [4] [µg/mL] | IC80 [4] [µg/mL] | MPI [4] | IC50 [5] [µg/mL] | IC80 [5] [µg/mL] | MPI [5]
N49P19 (antibody) | 0.394 | 1.3 | 100 | 0.653 | 4.55 | 100 | 3.66 | 25.6 | 87 | 0.204 | 0.895 | 100 | 2.56 | 13.4 | 98
N49P9.1 (antibody) | 0.052 | 0.196 | 100 | 0.067 | 0.237 | 100 | 0.965 | 3.93 | 100 | 0.382 | 1.45 | 100 | 0.107 | 0.709 | 100
